Results published in publication PMC8764033, “Single-molecule analysis of specificity and multivalency in binding of short linear substrate motifs to the APC/C” (Nature Communications, 2022).
Values joined by “and” are separate entries in the source; they are usually repeats but may differ in a detail not shown here. Equal values may be shown once. Where no end group is shown, it is not given here. Cy5 = cyanine-5 fluorescent label

Legend:
Conditions in all cases: both partners purified
[1] = molecular target: T1, WD40 domain of Cdh1 from Saccharomyces cerevisiae (aa 241–550), for anisotropy (S. cerevisiae, UniProt P53197 241-550); experiment: fluorescence polarisation; fluorescence anisotropy; 10 nM C-terminally Cy5-labeled peptide mixed with increasing concentrations of purified protein (Cdh1 WD40 up to 30.6 µM); wash buffer B (50 mM Tris-HCl pH 8, 150 mM KCl, 0.5 mM EDTA, 1 mM DTT, 10% glycerol); 25 °C; one-site equilibrium fit
T1 construct: Cdh1, S. cerevisiae, WD40 domain, aa 241-550; Cloned into pFastBac HT A; also called Cdh1^WD40; Cdh1 WD40; source: Sf9, baculovirus, purified (StrepTrap)
T1 sequence (looked up): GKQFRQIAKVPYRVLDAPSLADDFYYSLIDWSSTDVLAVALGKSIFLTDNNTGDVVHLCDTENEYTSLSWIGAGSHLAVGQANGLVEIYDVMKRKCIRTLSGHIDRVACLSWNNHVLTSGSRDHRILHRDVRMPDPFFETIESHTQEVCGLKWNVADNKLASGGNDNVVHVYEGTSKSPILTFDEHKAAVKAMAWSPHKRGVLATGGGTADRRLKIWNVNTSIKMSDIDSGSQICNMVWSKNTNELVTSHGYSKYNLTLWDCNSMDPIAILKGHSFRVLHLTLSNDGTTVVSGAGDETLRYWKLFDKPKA

[2] = molecular target: T2, GFP-tagged WD40 domain of human Cdh1 (aa 165–484), for SMOR (human, UniProt Q9UM11 165-484); experiment: single-molecule off-rate (SMOR) assay, TIRF microscopy; target held on PEG/PEG-biotin glass by NeutrAvidin and biotinylated anti-Strep-Tag II antibody (tag on the activator); dye-labeled ligand (peptide no greater than 1 nM) in buffer C + BSA (20 mM HEPES pH 7.5, 150 mM KCl, 10% glycerol, 0.05% Tween-20, 1 mM DTT) with oxygen scavengers; mean dwell time from an exponential distribution; dwell times below 100 ms …
T2 construct: human Cdh1, WD40 domain, aa 165-484; also called hCdh1^WD40; human Cdh1^WD40; source: Sf9, baculovirus, purified (StrepTrap); not shown: 2xStrep-Tag II, N-terminal, kept; GFP, C-terminal, kept

[3] = molecular target: T1, WD40 domain of Cdh1 from Saccharomyces …; experiment: fluorescence polarisation; fluorescence anisotropy as a1, 10 nM labeled Hsl1 degron peptide with 100 µM unlabeled peptide of the other Hsl1 degron present
[4] = molecular target: T3, GFP-tagged WD40 domain of yeast Cdh1 (aa 241–550), for SMOR (S. cerevisiae, UniProt P53197 241-550); experiment: fluorescence polarisation + other: single-molecule off-rate (SMOR) assay; inferred constants: kon from the KD of anisotropy and the koff of SMOR; KD for APC/C^Cdh1 from the dwell time with the kon of Cdh1 alone assumed
T3 construct: Cdh1, S. cerevisiae, WD40 domain, aa 241-550; also called Cdh1^WD40; GFP-tagged Cdh1^WD40; source: Sf9, baculovirus, purified (StrepTrap); not shown: 2xStrep-Tag II, N-terminal, kept; GFP, C-terminal, kept
T3 sequence (looked up): T1 sequence (looked up)

[5] = molecular target: T4, Cdh1-activated yeast APC/C (S. cerevisiae | S. cerevisiae …, UniProt P53197 1-566; P53886 1-1748; P09798 1-840; P38042 1-758; P53068 1-250); experiment: as above
T4 construct: Apc1 subunit of the APC/C, from yeast strain NHY13; Cdc16 subunit of the APC/C (Cdc16-TAP); Cdc27 subunit of the APC/C; Apc10/Doc1 subunit of the APC/C; only Apc1, Cdc16, Cdc27 and Apc10 are named; the yeast strain lacks endogenous Cdh1; TEV cleavage of the TAP tag may leave part of the tag on Cdc16; also called APC/C^Cdh1; not shown: 2xStrep-Tag II, N-terminal, kept; GFP, C-terminal, kept; …

[6] = molecular target: T2, GFP-tagged WD40 domain of human Cdh1 …; experiment: as above
[7] = molecular target: T5, WD40 domain of human Cdh1 (aa 165–484), for anisotropy (human, UniProt Q9UM11 165-484); experiment: fluorescence polarisation; fluorescence anisotropy; 10 nM C-terminally Cy5-labeled peptide mixed with increasing concentrations of purified protein (Cdh1 WD40 up to 30.6 µM); wash buffer B (50 mM Tris-HCl pH 8, 150 mM KCl, 0.5 mM EDTA, 1 mM DTT, 10% glycerol); 25 °C; one-site equilibrium fit
T5 construct: human Cdh1, WD40 domain, aa 165-484; Cloned into pFastBac HT A; also called human Cdh1 WD40; source: Sf9, baculovirus, purified (StrepTrap)

[8] = molecular target: T6, WD40 domain of human Cdc20 (aa 162–484), for anisotropy (human, UniProt Q12834 162-484); experiment: as above
T6 construct: human Cdc20, WD40 domain, aa 162-484; Cloned into pFastBac HT A; also called human Cdc20 WD40; source: Sf9, baculovirus, purified (StrepTrap)

[9] = molecular target: T3, GFP-tagged WD40 domain of yeast Cdh1 …; experiment: single-molecule off-rate (SMOR) assay, TIRF microscopy; target held on PEG/PEG-biotin glass by NeutrAvidin and biotinylated anti-Strep-Tag II antibody (tag on the activator); dye-labeled ligand (peptide no greater than 1 nM) in buffer C + BSA (20 mM HEPES pH 7.5, 150 mM KCl, 10% glycerol, 0.05% Tween-20, 1 mM DTT) with oxygen scavengers; mean dwell time from an exponential distribution; dwell times below 100 ms …
[10] = molecular target: T3, GFP-tagged WD40 domain of yeast Cdh1 …; experiment: as above; remark: listed apart in the source
[11] = molecular target: T4, Cdh1-activated yeast APC/C; experiment: as above
[12] = molecular target: T7, Cdc20-activated yeast APC/C (S. cerevisiae | S. cerevisiae …, UniProt P26309 1-610; P53886 1-1748; P09798 1-840; P38042 1-758; P53068 1-250); experiment: as above
T7 construct: Apc1 subunit of the APC/C, from yeast strain NHY13; Cdc16 subunit of the APC/C (Cdc16-TAP); Cdc27 subunit of the APC/C; Apc10/Doc1 subunit of the APC/C; only Apc1, Cdc16, Cdc27 and Apc10 are named; TEV cleavage of the TAP tag may leave part of the tag on Cdc16; also called APC/C^Cdc20; not shown: 2xStrep-Tag II, N-terminal, kept; GFP, C-terminal, kept; copies: + + + + + + + + + + + + +

[13] = molecular target: T8, GFP-tagged WD40 domain of human Cdc20 (aa 162–484), for SMOR (human, UniProt Q12834 162-484); experiment: as above
T8 construct: human Cdc20, WD40 domain, aa 162-484; also called hCdc20^WD40; human Cdc20^WD40; source: Sf9, baculovirus, purified (StrepTrap); not shown: 2xStrep-Tag II, N-terminal, kept; GFP, C-terminal, kept
T8 sequence (Q12834 162-484): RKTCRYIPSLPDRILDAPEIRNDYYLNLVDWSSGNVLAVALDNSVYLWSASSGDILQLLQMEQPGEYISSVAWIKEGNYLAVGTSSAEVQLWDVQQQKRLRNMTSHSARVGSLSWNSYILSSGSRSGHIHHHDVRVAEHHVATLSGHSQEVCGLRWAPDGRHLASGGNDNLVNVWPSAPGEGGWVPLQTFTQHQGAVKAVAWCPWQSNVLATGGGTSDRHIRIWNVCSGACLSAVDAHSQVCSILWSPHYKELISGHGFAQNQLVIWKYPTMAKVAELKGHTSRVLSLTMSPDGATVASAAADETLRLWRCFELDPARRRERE

T2 sequence (Q9UM11 165-484): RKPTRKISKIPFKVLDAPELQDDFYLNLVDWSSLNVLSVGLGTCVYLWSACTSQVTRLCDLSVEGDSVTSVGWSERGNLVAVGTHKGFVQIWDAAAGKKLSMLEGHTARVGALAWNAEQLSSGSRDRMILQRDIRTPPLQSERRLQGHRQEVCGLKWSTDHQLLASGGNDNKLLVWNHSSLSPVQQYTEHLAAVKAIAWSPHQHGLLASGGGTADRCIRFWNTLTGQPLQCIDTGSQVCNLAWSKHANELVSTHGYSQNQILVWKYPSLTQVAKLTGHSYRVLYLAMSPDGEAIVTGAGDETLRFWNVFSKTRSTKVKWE
T6 sequence (Q12834 162-484): as the sequence (Q12834 162-484) above
T5 sequence (Q9UM11 165-484): as the sequence (Q9UM11 165-484) above

With PANEDKENNIVYTGK-Cy5 [Cy5-labeled ySecurin KEN peptide] the Kd [1] was 26 µM and 40 µM and the mean dwell time [2] was 0.869 s.

For EQKPKRAALSDITNSFNKMNK-Cy5 [Cy5-labeled Hsl1 D box peptide], the “fold improvement of affinity with unlabeled Hsl1 KEN peptide, against no KEN peptide” value [3] was roughly 3 fold, the kon [4] was 800000 M⁻¹ s⁻¹ and the Kd [5] was 0.036 µM. The kon [6] was 100000 M⁻¹ s⁻¹, the Kd [1] was 3.5 µM and 4 µM and the Kd [7] was roughly 2 µM. The Kd [8] was roughly 2 µM, the koff [9] was 2.8 s⁻¹ and the mean dwell time [10] was 0.36 s. The mean dwell time [11] was 35.3 s, the mean dwell time [12] was 0.412 s and the mean dwell time [2] was 4.52 s. It also gave a mean dwell time [13] of 1.08 s.

AQQQGRLPLAAKDNNRSKSFIK-Cy5 [Cy5-labeled ySecurin D box peptide] was tested, and the mean dwell time [11] was 0.132 s and the mean dwell time [12] was 1.87 s.

For LPKATRKALGTVNRATEKSVKK-Cy5 [Cy5-labeled AurKB D box peptide], the mean dwell time [2] was 0.202 s.

With QDSKPRRALTDVPVNNNPLSQK-Cy5 [Cy5-labeled Clb5 D box peptide] the mean dwell time [11] was 0.159 s, the mean dwell time [12] was 0.207 s and the mean dwell time [13] was 0.054 s.

In the case of GVSTNKENEGPEYPTKIEK-Cy5 [Cy5-labeled Hsl1 KEN peptide], the “fold improvement of affinity with saturating unlabeled D box peptide, against no D box peptide” value [3] is reported as roughly 4 fold, the Kd [1] is reported as 14 µM and 12 µM and the mean dwell time [10] is reported as 0.166 s. The mean dwell time [11] was 0.185 s and the mean dwell time [2] was 1.48 s.

B1: Hsl1 fragment (amino acids 667–872) with C-terminal HaloTag, mutations in the D box (domain or fragment)
chain: QNSASKRSLYSLQSISKRSLNLNDLLVFDDPLPSKKPASENVNKSEPHSLESDSDFEILCDQILFGNALDRILEEEEDNEKERDTQRQRQNDTKSSADTFTISGVSTNKENEGPEYPTKIEKNQFNMSYKPSENMSGLSSFPIFEKENTLSSSYLEEQKPKAAAASDITASFNKMNKQEGMRIEKKIQREQLQKKNDRPSPLKPIQ
modifications: JF549 or JF646 dye covalently bound to the HaloTag
B1 showed a mean dwell time [10] of 0.421 s and a mean dwell time [11] of 0.374 s.

With LIYVDKENGEPGTRK-Cy5 [Cy5-labeled hSecurin KEN box peptide] the mean dwell time [2] was 0.174 s.
